Measured values taken from paper PMC12711580, “Florigen activation complex forms via multifaceted assembly in Arabidopsis” (Nature, 2025).

B1: MBP–FDc(T282E), N-terminal MBP-fused, truncated FD (amino acids 215–285) [Arabidopsis thaliana] / GRF7 (14-3-3ν), recombinant [Arabidopsis thaliana] (parent)
chain 1: NRRHKRMIKNRESAARSRARKQAYTNELELEVAHLQAENARLKRQQDQLKMAAAIQQPKKNTLQRSSEAPF
chain 2: MSSSREENVYLAKLAEQAERYEEMVEFMEKVAKTVDTDELTVEERNLLSVAYKNVIGARRASWRIISSIEQKEESRGNDDHVSIIKDYRGKIETELSKICDGILNLLDSHLVPTASLAESKVFYLKMKGDYHRYLAEFKTGAERKEAAESTLVAYKSAQDIALADLAPTHPIRLGLALNFSVFYYEILNSPDRACSLAKQAFDEAISELDTLGEESYKDSTLIMQLLRDNLTLWNSDINDEAGGDEIKEASKHEPEEGKPAETGQ
B2: MBP–FDc(T282E), N-terminal MBP-fused, truncated FD (amino acids 215–285) [Arabidopsis thaliana] / itself (parent)
chain: B1 chain 1

Variants of: B1
Test: SEC-MALS
Details: with GRF7 (14-3-3ν), free GRF7 peak marked 60 kD

Row | screen value | Variant
1 | 117 kD | chain 1 NRRHKRMIKNRESAARSRARKQAATNELALEVAHLQAENARLKRQQDQLKMAAAIQQPKKNTLQRSSEAPF [chain 1 Y24A E29A]
2 | 168 kD | chain 1 NRRHKRMIKNRESAARSRARKQAYTNELELEVAHLQAENARLKRQQDQAKMAAAIQQPKKNTLQRSSEAPF [chain 1 L49A]
3 | 117 kD | chain 1 NRRHKRMIKNRESAARSRARKQAYTNELELEVAHLQAENARAKRQQDQLKMAAAIQQPKKNTLQRSSEAPF [chain 1 L42A]
4 | 116 kD | chain 1 NRRHKRMIKNRESAARSRARKQAYTNELELEVAHAQAENARLKRQQDQLKMAAAIQQPKKNTLQRSSEAPF [chain 1 L35A]

Variants of: B2
Test: SEC-MALS
Details: with itself

Row | screen value | Variant
5 | 55 kD | NRRHKRMIKNRESAARSRARKQAYTNELELEVAHLQAENARAKRQQDQLKMAAAIQQPKKNTLQRSSEAPF [chain 1 L42A]
6 | 55 kD | NRRHKRMIKNRESAARSRARKQAATNELALEVAHLQAENARLKRQQDQLKMAAAIQQPKKNTLQRSSEAPF [chain 1 Y24A E29A]
7 | 55 kD | NRRHKRMIKNRESAARSRARKQAYTNELELEVAHAQAENARLKRQQDQLKMAAAIQQPKKNTLQRSSEAPF [chain 1 L35A]
8 | 55 kD | NRRHKRMIKNRESAARSRARKQAYTNEAELEVAHLQAENARLKRQQDQLKMAAAIQQPKKNTLQRSSEAPF [chain 1 L28A]
9 | 55 kD | NRRHKRMIKNRESAARSRARKQAYTNELELEVAHLQAENARLKRQQDQAKMAAAIQQPKKNTLQRSSEAPF [chain 1 L49A]
